Data reported in the nanobody polyreactivity screen of Harvey et al. (2022).

Experiment: yeast display, Sf9 membrane polyspecificity reagent, FACS + sequencing; frameworks hold sequencing errors
Outline: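 A synthetic nanobody library was expressed on Saccharomyces cerevisiae BJ5465 by galactose induction for 36–48 hours. The library was stained for 1 hour at 4 °C with 10% biotinylated, detergent-solubilized Sf9 membrane reagent and enriched with streptavidin microbeads before FACS. Low and high (top ~1%) gates were set on anti-HA fluorescence for expression and streptavidin fluorescence for reagent binding, and each polyreactivity label reflects the gate of origin.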

Row | Sequence | polyreactivity (PSR sort gate)
1 | QVQLVESGGGLVQAGGSLRLSCAASGSTFYYYAMGWYRQAPGKERELVAAIDWSGESTYYADSVKGRFTISRDKAKKTVYLQMHSLKPEDTAVYYCAADLGYPWGYVLFYKQSISYYYWGQGTQVTVSS | low polyreactivity
2 | QVQLVESGGGLVQAGGSLRLSCAASGSTFYYYAMGWYRQAPGKERELVAAISNRDGRTYYADSVKGRFTISRDNAKNTVYLQMNSLKPEDTAVYYCNAYSYGHYYWGQGTQVTVSS | high polyreactivity
3 | QVQLVESGGGLVQAGGSLRLSCAASGSTFYYYAMGWYRQAPGKERELVAAITKSGGSTYYADSVKGRFTISRDNAKNTVYLQMNSLKPEDTAVYYCAAYLRSGYKFDYWGQGTQVTVSS | low polyreactivity
4 | QVQLVESGGGLVQAGGSLRLSCAASGSTFYYYAMGWYRQAPGKERELVAAITKSRGSTYYADSVKGRFTISRDNAKNTVYLQMNSLKPEDTAVYDCAAYLRSGYKFDYWGQGTQGTVSS | low polyreactivity
5 | QVQLVESGGGLVQAGGSLRLSCAASGSTFYYYAMGWYRQAPGKERELVASINYSAGRTYYADSVKGRFTISRDNAKNTVYLQMNSLKPEDTAVYYCATGYPYHVNRYYYWGQGTQVTVSS | high polyreactivity
6 | QVQLVESGGGLVQAGGSLRLSCAASGSTFYYYAMGWYRQAPGKERELVATISRSTARTFYADSVKGRFTISRDNAKNTVYLQMNSLKPEDTAVYYCAATSYVSVYPSYYRFGTYGYWGQGTQVTVSS | high polyreactivity
7 | QVQLVESGGGLVQAGGSLRLSCAASGSTFYYYAMGWYRQAPGKERELVATISSGSSTNYADSVKGRFTISRDNAKNTVYLQMNSLKPEDTAVYYCATDGDPAYPEMEYWGQGTQVTVSS | low polyreactivity
8 | QVQLVESGGGLVQAGGSLRLSCAASGSTFYYYGMGWYRQAPGKERELVAAINWSGGTTYYADSVKGRFTISRDNAKNTVYLQMNSLKPEDTAVYYCATEHNHLGYYYWGQGTQVTVSS | low polyreactivity
9 | QVQLVESGGGLVQAGGSLRLSCAASGSTFYYYTMGWYRQAPGKERELVATITYRSGNTYYADSVKGRFTISRDNAKNTVYLQMNSLKPEDTAVYYCAALRRVLPYKRYDYWGQGTQVTVSS | high polyreactivity
10 | QVQLVESGGGLVQAGGSLRLSCAASGSTFYYYTMGWYRQAPGKERELVDISWDGDSTYSADSVKGRFTISRDNAKNTVYLQMNSLKPEDTAVYYCAAADYYLPDDVSDYVDANFDYWGQGTQVTVSS | low polyreactivity
11 | QVQLVESGGGLVQAGGSLRLSCAASGSTGGYAMGWYRQAPGKERELVARISYSGGSTYYADSVKGRFTISRDNAKNTVYLQMNSLKPEDTAVYYCAARILYRYYYWGQGTQVTVSS | high polyreactivity
12 | QVQLVESGGGLVQAGGSLRLSCAASGSTHGYAMGWYRQAPGKERELVAAISLNTGSTYYADSVKGRFTIARDNAKNTVYFQMNSLKPEYTAVYYCNADDYTYATYEYDYWGQGTLVTVSS | low polyreactivity
13 | QVQLVESGGGLVQAGGSLRLSCAASGSTIAYYAMGWYRQAPGKERELVAAISKRGGSTYYADSVKGRFTISRDNAKNTVYLQMNSLKPEDTAGYYCATGRSTDKGYYFWGQGTQVTVSS | high polyreactivity
14 | QVQLVESGGGLVQAGGSLRLSCAASGSTIDGYAMGWYRQAPGKEREFVAAISFSSASTYYADSVKGRFTISRDNAKNTVYLQMNSLKPEDTAVYYCNADFFDSGGSIEYDSWGQGSQVTVSS | low polyreactivity
15 | QVQLVESGGGLVQAGGSLRLSCAASGSTIDYYAMGWYRQAPGKERELVAAIDWSGDSTYYADSVKGRFTISRDNAKNTVYLQMNSLKPEDTAVYYCAADLDSRGTYGRYEYWGQGTQVTVSS | low polyreactivity
16 | QVQLVESGGGLVQAGGSLRLSCAASGSTIFPYAMGWYRQAPGKERELVAAITSGGNTNYADSVKGRFTISRDNAKNTVYLQMNSLKPEDTAVYYCAADYFWHYRKYDYWGQGTQVTVSS | low polyreactivity
17 | QVQLVESGGGLVQAGGSLRLSCAASGSTIGANAMGWSRQAPGKERELVAAISLSGGTSYADSVKGRFTISRDNAKNTVYLQMNSLKPEDTAVYYCAAPGRGWFDWYAHYYWGQGTQVTVSS | low polyreactivity
18 | QVQLVESGGGLVQAGGSLRLSCAASGSTIGAYAMGWYRPAPGKERELVAAISRRGGSTYYADSVKGRFTISRDNAKNTVYLQMNSLKPEDSAVYYCNAVGTRVDGEHYYWGQGTQVTVSS | high polyreactivity
19 | QVQLVESGGGLVQAGGSLRLSCAASGSTIGFYAMGWYRQAPGKERELVAVISSGDSTYYADSVKGRFTISRDNAKNTVYLQMNSLKPEDTAVYYCAKDALVIDGGGGYDYWGQGTQVTVSS | low polyreactivity
20 | QVQLVESGGGLVQAGGSLRLSCAASGSTIGLNARGWYRQAPGKERELVAAITRSDITNYADSVKGRFTISRDNAKNTVYLQMNRLKPEDTEVYYCAAESPLYWVDDFESGWRYYYSGQGTQVTVSS | low polyreactivity
21 | QVQLVESGGGLVQAGGSLRLSCAASGSTIGRYAMGWYRQAPGKERELVAAISSSGDRTYYADSVKGRFTISRDNAKNTVYLQMNSLKPEDTAVYYCNSRRLFSGYDYWGQGTQVTVSS | high polyreactivity
22 | QVQLVESGGGLVQAGGSLRLSCAASGSTIGWNAMGWYRQAPRKERELVAAISSSGGITYYADSVKGRYTISRDTAKNTVYLQMNSLKPDDTAVYDCAAEGDDDWVNYWGHGTQVTVSS | low polyreactivity

Row | Sequence | polyreactivity (PSR sort gate)
23 | QVQLVESGGGLVQAGGSLRLSCAASGSTIGYYAMGWYRPAPGKERELVAAISWSGGSTYYADSVKGRFTISRDTAKNTVYFQMNSLKPEDTAGYYCAADTYPDYYLVEYYYWGQGTQVTVSS | low polyreactivity
24 | QVQLVESGGGLVQAGGSLRLSCAASGSTIGYYARGWSRQAPGKERELVARIRSTGVSTFYADSVKGRFTISRDNAKNTVYLQMNSLKPEDTAVYYCAAPVSSLGWKHRQYTTWYEYWGQGTQVTVSS | high polyreactivity
25 | QVQLVESGGGLVQAGGSLRLSCAASGSTIINYAMGWYRQAPGKERELVAVITSDDGSTYYADSVKGRFTISRDNAKNTVYLQMNSLKPEDTAVYYCAADYYDQRYRPGPWYDYWGQGSQVTVSS | low polyreactivity
26 | QVQLVESGGGLVQAGGSLRLSCAASGSTIIYYAMGWYRQAPGKESELVATISTSGTSTYYADSVKGRFTISRDNAKNTVYLQMNSLKPEDTAVYYCNAVHRNWRQKFDYWGQGTQVTVSS | high polyreactivity
27 | QVQLVESGGGLVQAGGSLRLSCAASGSTINYYAMGWYIQAPGKERELVARITWSGARTYYADSVKGRFTISRDNAKNTVYLQMNSLKPEDTAVYYCAAGYLALESPWYYRWYDYWGQGTQVTVSS | low polyreactivity
28 | QVQLVESGGGLVQAGGSLRLSCAASGSTIQLYAMGWYRQAPGKERELVAAITSSAGRTYYADSVKGRFTISRDNAKNTVYLQMNSLKPEDTAVYYCAKDGSFTFWGQGTQVTVSS | low polyreactivity
29 | QVQLVESGGGLVQAGGSLRLSCAASGSTIRAYGMGWYRQAPGKERELVAAISYSGDSTYYADSVKGRFTISRDNAKNTVYLQMNSLKPEDTAVYYCDADYSYRHYEYDYWGQGTQVTVSS | low polyreactivity
30 | QVQLVESGGGLVQAGGSLRLSCAASGSTIRKNALGWSRQAPGKEREWVADIRRGGGTNYADSVKGRFTISRDNAKNTVYLQMNSLKPEDTAVYSCNTDILYYGRSKAPFYYCGQGTQVTVSS | high polyreactivity
31 | QVQLVESGGGLVQAGGSLRLSCAASGSTIRSNAMGWYRQAPGKERELVAAITSGGSTYYAESVKGRFTISRDNAKNTVYLQMNSLKPEDTAVYYCAVRYYRRRYDYWGQGTQVTVSS | low polyreactivity
32 | QVQLVESGGGLVQAGGSLRLSCAASGSTIRSYAMGWYRQATRKERELVARIAYSSGRTYYADSVKGRFTISRDNAKNTVYLQMNSLKPEDTAVYYCAVRGYGYGYDYWGQGTQVTVSS | high polyreactivity
33 | QVQLVESGGGLVQAGGSLRLSCAASGSTISFYAMGWYRQAPGKERELVAAISFRGGRTYYADSVKGRFTISRDNAKNTVYLQMYSLKPEDTAVYYCAAVWYYGHARYDYWGQGTQVTVSS | high polyreactivity
34 | QVQLVESGGGLVQAGGSLRLSCAASGSTISFYAMGWYRQAPGKERELVAAISRSGGSTFYADSVKGRFTISRDNAKNTVYLQMNSLKPEDTAVYYCAAYGGMQSRYYYWGQGTQVTVSS | high polyreactivity
35 | QVQLVESGGGLVQAGGSLRLSCAASGSTISPYAMGWYRQAPGKEREFVAAISRSGGSTYYADSVKVRFTISRDNAKNTVYLQMNSLKPEDTAVYYCARRYARITPVYPPLNYWGQGTQVTVSS | high polyreactivity
36 | QVQLVESGGGLVQAGGSLRLSCAASGSTISRNAMGWYRQAPGKERELVAAITSKGDSTYYADSVKGRFTISRDNAKNTVYLQMNSLKPEDTAVYYCAAVRRGYKYDYWGQGTQVTVSS | low polyreactivity
37 | QVQLVESGGGLVQAGGSLRLSCAASGSTISRYAMGWYRHAPGKERELVAAISWNGGDTYYADSVKGRFTISRDYAKNTVFLQMNSLKPEDTAVYYCNTPRRITRAGYWAGSRYNYWGQGTQVTVSS | high polyreactivity
38 | QVQLVESGGGLVQAGGSLRLSCAASGSTISRYAMGWYRQAPGKEREFVAAISWRGGSTYYADSVKGRFTISRDNAKNTVYLQLNSLKPEDTAVYYCNADYRYARKGHYGKFGYWGQGTQVNVSS | high polyreactivity
39 | QVQLVESGGGLVQAGGSLRLSCAASGSTITYYAMGWYRQAPGKERELVAAISGSGRTHYADSVKGRFTISRDNAKNTVYLQMNSLKPEDTAVYDCNARQYTYNYAFTRCKYDYWGQGTQVTVSS | high polyreactivity
40 | QVQLVESGGGLVQAGGSLRLSCAASGSTIVGYTMGWYRQAPGKERELVAAISRGGGSTYYADSVKGRFTISRDNAKNTVYLQMNSLKPEDTAVYYCNAYTYNRYYWGQGTQVTVSS | high polyreactivity
41 | QVQLVESGGGLVQAGGSLRLSCAASGSTIVIYTMGWYRQAPGKERELVAAISQSGGRTYYADSVKGRFTISRDNSKNTVYLQMNSLKPEDTAVYYCAATWGKHYGYWGQGTQVTVSS | high polyreactivity
42 | QVQLVESGGGLVQAGGSLRLSCAASGSTIVVNAMGWSRQAPGKERELVASISWTTGSTYYADSVKGRFTISRDNAKNTVFLQMNSLKPEDTAVYYCAADILPRYSQFDYWGQGTQVTVSS | low polyreactivity
43 | QVQLVESGGGLVQAGGSLRLSCAASGSTIVYYAMGWYRQAPGKERELVARITWSGGRTYADSVKGRFTISRDNAKNTVYLQMNSLKPEDTAVYYCNADPGDNTTEYDYWGQGTQVTVSS | low polyreactivity
